From publication doi:10.1101/2024.07.14.603434 (bioRxiv, 2024)

Target: the molecule itself
Assay: SEC

B1: NagS (SCO4393), N-acetylglucosamine-6-phosphate dehydratase (enzyme, Streptomyces coelicolor, UniProt Q9K3V1 1-251, looked up)
chain: MSDHKPAGQFLDAAIDLLRRVRDEEADSIEAAGTLLADTVQNGGRLFAFGAGHSSLAAQDVVYRAGGLALMNLLTVPGVVGIDVMPATLGSALERVDGLASAVLDSSPLRAGDALVIISLSGRNALPVEMAMHARALGLRVIGVTSVAYASQTTSRHASGTFLKDHCDIVLDSKIAVGDAELTLDTVPAPFAPASTVVTAALMQAVTATAAATLADRGIEPPLLRSGNVDGGHEWNARVLEQYGERIFYRR
stoichiometry N: 2
